Reference: patent US20240317834A1, “COMPOSITIONS AND METHODS FOR NEUROLOGICAL DISEASES” (CODA BIOTHERAPEUTICS, INC., priority 2020, published 2024)
Positions count from the first letter of the chain named. In names and notes the source's numbering stands.

System: Lenti-X 293T cells
Assay: YFP fluorescence quenching anion reporter plate reader assay of engineered receptors stimulated with acetylcholine or a non-native ligand
Assay type: cell-based
Conditions: for percent quench of YFP fluorescence, 30 nM TC-6683: TC-6683 30 nM; for percent quench of YFP fluorescence, 300 nM TC-6683: TC-6683 300 nM; for percent quench of YFP fluorescence, 3 uM TC-6683: TC-6683 3 uM; for percent quench of YFP fluorescence, 30 uM TC-6683: TC-6683 30 uM; for percent quench of YFP fluorescence, 100 uM TC-6683: TC-6683 100 uM; for percent quench of YFP fluorescence, 10 uM ach: acetylcholine 10 uM; for percent quench of YFP fluorescence, 100 uM ach: acetylcholine 100 uM; for percent quench of YFP fluorescence, 1 mM ach: acetylcholine 1 mM; for percent quench of YFP fluorescence, 3 mM ach: acetylcholine 3 mM
Method in brief: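 Lenti-X 293T cells carrying a YFP anion reporter were transiently transfected with channel DNA and assayed the next day in HEPES-buffered ECS at pH 7.2. Ligand (acetylcholine or non-native ligand) was added in NaI-substituted ECS. Percent quench was the mean of the last 10 s relative to the 15 s pre-addition baseline.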

B1: CODA534: engineered chimeric LGIC receptor, L131S, S172D in SEQ ID NO: 33 (protein)
chain: MRCSPGGVWLALAASLLHVSLQGEFQRKLYKELVKNYNPLERPVANDSQPLTVYFSLSLLQIMDVDEKNQVLTTNIWLQMSWTDHYLQWNVSEYPGVKTVRFPDGQIWKPDILLYNSADERFDATFHTNVSVNSSGHCQYLPPGIFKSSCPMDLKNFPMDVQTCKLKFGSWDYGGWSLDLQMQEADISGYIPNGEWDLVGIPGKRSERFYECCKEPYPDVTFTVTMRRRMGYYLIQMYIPSLLIVILSWISFWINMDAAPARVGLGITTVLTMTTQSSGSRASLPKVSYVKAIDIWMAVCLLFVFSALLEYAAVNFVSRQHKELLRFRRKRRHHKSPMLNLFQEDEAGEGRFNFSAYGMGPACLQAKDGISVKGANNSNTTNPPPAPSKSPEEMRKLFIQRAKKIDKISRIGFPMAFLIFNMFYWIIYKIVRREDVHNQ
modifications: synthetic sequence of chimeric LGIC
YFP fluorescence quenching using CNL001 (1 nM CNL001, first column): 23.438% | YFP fluorescence quenching using CNL001 (1 nM CNL001, second column): 28.59% | YFP fluorescence quenching using TC-5619/Bradanicline (1 nM brd): −1.13% | YFP fluorescence quenching using TC-5619/Bradanicline (3 nM brd): −3.83% | YFP fluorescence quenching using CNL001 (10 nM CNL001, first column): 56.882% | YFP fluorescence quenching using CNL001 (10 nM CNL001, second column): 56.777% | YFP fluorescence quenching using TC-5619/Bradanicline (10 nM brd): −3.78% | YFP fluorescence quenching using Facinicline (30 nM fac): −23.44 | YFP fluorescence quenching using CNL001 (50 nM CNL001, first column): 65.044% | YFP fluorescence quenching using CNL001 (50 nM CNL001, second column): 67.373% | YFP fluorescence quenching using ABT-126 (50 nM abt): −11.96% | YFP fluorescence quenching using CNL001 (100 nM CNL001, first column): 68.666% | YFP fluorescence quenching using CNL001 (100 nM CNL001, second column): 70.357% | YFP fluorescence quenching using CNL002 (100 nM CNL002): 14.26% | YFP fluorescence quenching using ABT-126 (100 nM abt): −10.72% | YFP fluorescence quenching using AZD-0328 (100 nM azd0328): −9.32% | YFP fluorescence quenching using TC-5619/Bradanicline (100 nM brd): −2.03% | YFP fluorescence quenching using ABT-126 (300 nM abt): 11.65% | YFP fluorescence quenching using AZD-0328 (300 nM azd0328): 4.94% | YFP fluorescence quenching using Facinicline (300 nM fac): 2.75 | YFP fluorescence quenching using CNL001 (1 uM CNL001, first column): 73.019% | YFP fluorescence quenching using CNL001 (1 uM CNL001, second column): 73.527% | YFP fluorescence quenching using CNL002 (1 uM CNL002): 45.55% | YFP fluorescence quenching using ABT-126 (1 uM abt): −3.06% | YFP fluorescence quenching using TC-5619/Bradanicline (1 uM brd): 1.68% | YFP fluorescence quenching using TC-6987 (1 uM tc6987): −20.99 | YFP fluorescence quenching using Facinicline (10 uM fac): 69.71 | YFP fluorescence quenching using TC-6987 (10 uM tc6987): −27.62 | YFP fluorescence quenching using CNL002 (30 uM CNL002): 64.93% | YFP fluorescence quenching using AZD-0328 (30 uM azd0328): 60.61% | YFP fluorescence quenching using Facinicline (30 uM fac): 61.44 | YFP fluorescence quenching using TC-6987 (500 uM tc6987): −24.22 | percent quench of YFP fluorescence, 30 nM TC-6683: −22.464% | percent quench of YFP fluorescence, 300 nM TC-6683: −23.976% | percent quench of YFP fluorescence, 3 uM TC-6683: −24.897% | percent quench of YFP fluorescence, 30 uM TC-6683: −20.474% | percent quench of YFP fluorescence, 100 uM TC-6683: −22.253% | percent quench of YFP fluorescence, 10 uM ach: −11.3% | percent quench of YFP fluorescence, 100 uM ach: −27.53% | percent quench of YFP fluorescence, 1 mM ach: 2.84% | percent quench of YFP fluorescence, 3 mM ach: 14.65%

B2: CODA805: engineered chimeric LGIC receptor, Y115D, S170T in SEQ ID NO: 33 (protein)
chain: B1 chain with Y115D, S131L, S170T, D172S
modifications: synthetic sequence of chimeric LGIC
YFP fluorescence quenching using CNL001 (1 nM CNL001, first column): −10.729% | YFP fluorescence quenching using CNL001 (1 nM CNL001, second column): −15.278% | YFP fluorescence quenching using TC-5619/Bradanicline (1 nM brd): −9.78% | YFP fluorescence quenching using TC-5619/Bradanicline (3 nM brd): −12.06% | YFP fluorescence quenching using CNL001 (10 nM CNL001, first column): −20.403% | YFP fluorescence quenching using CNL001 (10 nM CNL001, second column): −14.905% | YFP fluorescence quenching using TC-5619/Bradanicline (10 nM brd): −9.02% | YFP fluorescence quenching using TC-5619/Bradanicline (30 nM brd): −16.3% | YFP fluorescence quenching using Facinicline (30 nM fac): 38.08 | YFP fluorescence quenching using CNL001 (50 nM CNL001, first column): −14.303% | YFP fluorescence quenching using CNL001 (50 nM CNL001, second column): −15.741% | YFP fluorescence quenching using ABT-126 (50 nM abt): −11.83% | YFP fluorescence quenching using CNL001 (100 nM CNL001, first column): −12.637% | YFP fluorescence quenching using CNL001 (100 nM CNL001, second column): −10.606% | YFP fluorescence quenching using CNL002 (100 nM CNL002): −18.17% | YFP fluorescence quenching using ABT-126 (100 nM abt): −11.5% | YFP fluorescence quenching using AZD-0328 (100 nM azd0328): −0.71% | YFP fluorescence quenching using TC-5619/Bradanicline (100 nM brd): −7.44% | YFP fluorescence quenching using Facinicline (100 nM fac): −14.37 | YFP fluorescence quenching using ABT-126 (300 nM abt): −8.01% | YFP fluorescence quenching using AZD-0328 (300 nM azd0328): −1.73% | YFP fluorescence quenching using TC-5619/Bradanicline (300 nM brd): −10.93% | YFP fluorescence quenching using Facinicline (300 nM fac): 19.41 | YFP fluorescence quenching using CNL001 (1 uM CNL001, first column): −13.535% | YFP fluorescence quenching using CNL001 (1 uM CNL001, second column): −11.335% | YFP fluorescence quenching using CNL002 (1 uM CNL002): −15.2% | YFP fluorescence quenching using ABT-126 (1 uM abt): −9.34% | YFP fluorescence quenching using TC-5619/Bradanicline (1 uM brd): −4.55% | YFP fluorescence quenching using TC-6987 (1 uM tc6987): 31.9 | YFP fluorescence quenching using Facinicline (10 uM fac): 67.33 | YFP fluorescence quenching using TC-6987 (10 uM tc6987): 25.54 | YFP fluorescence quenching using CNL002 (30 uM CNL002): −14% | YFP fluorescence quenching using AZD-0328 (30 uM azd0328): 47.39% | YFP fluorescence quenching using Facinicline (30 uM fac): 79.67 | YFP fluorescence quenching using TC-6987 (500 uM tc6987): 21.13 | percent quench of YFP fluorescence, 10 uM ach: −0.46% | percent quench of YFP fluorescence, 100 uM ach: −4.93% | percent quench of YFP fluorescence, 1 mM ach: −11.18% | percent quench of YFP fluorescence, 3 mM ach: −3.53%

B3: CODA535: engineered chimeric LGIC receptor, L131T, S172D in SEQ ID NO: 33 (protein)
chain: B1 chain with S131T
modifications: synthetic sequence of chimeric LGIC
YFP fluorescence quenching using CNL001 (1 nM CNL001, first column): 8.736% | YFP fluorescence quenching using CNL001 (1 nM CNL001, second column): 24.572% | YFP fluorescence quenching using CNL001 (10 nM CNL001, first column): 60.552% | YFP fluorescence quenching using CNL001 (10 nM CNL001, second column): 63.09% | YFP fluorescence quenching using Facinicline (30 nM fac): −21.36 | YFP fluorescence quenching using CNL001 (50 nM CNL001, first column): 73.242% | YFP fluorescence quenching using CNL001 (50 nM CNL001, second column): 73.889% | YFP fluorescence quenching using ABT-126 (50 nM abt): −11.09% | YFP fluorescence quenching using CNL001 (100 nM CNL001, first column): 76.147% | YFP fluorescence quenching using CNL001 (100 nM CNL001, second column): 76.21% | YFP fluorescence quenching using CNL002 (100 nM CNL002): 1.23% | YFP fluorescence quenching using ABT-126 (100 nM abt): −10.37% | YFP fluorescence quenching using AZD-0328 (100 nM azd0328): −7.02% | YFP fluorescence quenching using ABT-126 (300 nM abt): −4% | YFP fluorescence quenching using AZD-0328 (300 nM azd0328): −0.48% | YFP fluorescence quenching using Facinicline (300 nM fac): 4.17 | YFP fluorescence quenching using CNL001 (1 uM CNL001, first column): 78.988% | YFP fluorescence quenching using CNL001 (1 uM CNL001, second column): 78.818% | YFP fluorescence quenching using CNL002 (1 uM CNL002): 35.77% | YFP fluorescence quenching using ABT-126 (1 uM abt): 4.05% | YFP fluorescence quenching using TC-6987 (1 uM tc6987): −21.8 | YFP fluorescence quenching using TC-6987 (10 uM tc6987): −27.08 | YFP fluorescence quenching using CNL002 (30 uM CNL002): 68.29% | YFP fluorescence quenching using AZD-0328 (30 uM azd0328): 70.16% | YFP fluorescence quenching using Facinicline (30 uM fac): 65.94 | YFP fluorescence quenching using TC-6987 (500 uM tc6987): −21.56 | percent quench of YFP fluorescence, 30 nM TC-6683: −29.362% | percent quench of YFP fluorescence, 300 nM TC-6683: −28.954% | percent quench of YFP fluorescence, 3 uM TC-6683: −23.708% | percent quench of YFP fluorescence, 30 uM TC-6683: −23.431% | percent quench of YFP fluorescence, 100 uM TC-6683: −18.324% | percent quench of YFP fluorescence, 10 uM ach: −12.24% | percent quench of YFP fluorescence, 100 uM ach: −26.23% | percent quench of YFP fluorescence, 1 mM ach: −1.16% | percent quench of YFP fluorescence, 3 mM ach: 2.97%
